Here are results for two molecules from patent US20200291071A1.

Series [1] has as its target r6,Glm-Tei-pseudoaglycone (compound 12). Put plainly: ITC. On the technique in general: Isothermal titration calorimetry measures the heat released or taken up as one component is titrated into another.
Series [2] shares this target. Put plainly: ITC (isothermal titration calorimetry), exothermic injections, sigmoidal isotherm over molar ratio about 0.45 to 1.85.
Series [3] has as its target r4,Glm-Tei-pseudoaglycone (compound 6).
In series [4] the target is r6,Glm-Tei-pseudoaglycone (compound 12).

As usually defined, the Kd is the concentration at which binding is half-saturated. On to “Dbv27 (methyltransferase encoded by gene dbv27) (enzyme)”, for which the Kd was found to be 5 µM in series [1] and 5.1 µM in series [2].

B1: Orf11*S (acyltransferase, single mutant W163A of Orf11*) (protein)
chain: MGSSHHHHHHSSGLVPRGSHMMMDPETVRIALGLEERTAAWLTELDELGPPAEPVRLPRGEEARDLLRRLEVPELDAEEIVAAAPDPDRDPALWWLLERTHHAIVRHMGDHRAKPRGGPPLPYEGGAAARYFHVYVFLATVPAVRRFHAERGIPDEVGWETLTQLGELVAIHRRKYGQGGMNMQAWTTYHLRGILYRLGRLQFSLATGKDGTPHLGLHVPEWGGPLLPKAYDESLHRARPFFDRHFPEHGARVAWGSSWMLDPQLEEYLTEDSNIIQLARFWTLTDSAPEPGNADGDSSILEFVFRYNGQPLDELPQRSSLERAVIAHLKAGRHWHMRTGFVKLP
Regarding B1, the “Km (acyl-transfer kinetics, HPLC)” value is listed as “Km=0.07 mM” in series [3] and “Km=0.3±0.03 mM” in series [4].
